Assay results from patent publication US20250281611A1 (BIOSCEPTRE AUST, published 2025).

Key:
CD37 = target: T1, CD37 (UniProt P11049 1-281, limits assumed); test: flow cytometry, JeKo-1 cells
T1 construct: whole, on cells
T1 sequence (looked up): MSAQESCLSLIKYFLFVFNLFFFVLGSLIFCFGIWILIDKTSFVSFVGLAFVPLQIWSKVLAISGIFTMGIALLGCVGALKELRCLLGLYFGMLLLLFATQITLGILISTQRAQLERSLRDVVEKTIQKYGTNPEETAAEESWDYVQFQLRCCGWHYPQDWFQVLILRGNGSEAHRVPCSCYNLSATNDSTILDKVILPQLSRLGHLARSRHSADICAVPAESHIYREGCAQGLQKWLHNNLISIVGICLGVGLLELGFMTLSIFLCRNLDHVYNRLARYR

CD79B = target: T2, CD79B (UniProt P40259 29-229, limits assumed); test: flow cytometry, JeKo-1 cells
T2 construct: whole, on cells
T2 sequence (looked up): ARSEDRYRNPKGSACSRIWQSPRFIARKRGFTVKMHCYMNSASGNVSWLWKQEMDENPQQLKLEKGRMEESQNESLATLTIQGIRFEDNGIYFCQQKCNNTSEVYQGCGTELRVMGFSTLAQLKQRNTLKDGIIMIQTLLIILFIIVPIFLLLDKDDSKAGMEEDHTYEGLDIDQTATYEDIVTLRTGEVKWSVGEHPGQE

ROR1 = target: T3, ROR1 (UniProt Q01973 30-937, limits assumed); test: flow cytometry, JeKo-1 cells
T3 construct: whole, on cells

CD22 = target: T4, CD22 (UniProt P20273 20-847, limits assumed); test: flow cytometry, Raji cells
T4 construct: whole, on cells

CD70 = target: T5, CD70 (UniProt P32970 1-193, limits assumed); test: flow cytometry, Raji cells
T5 construct: whole, on cells
T5 sequence (looked up): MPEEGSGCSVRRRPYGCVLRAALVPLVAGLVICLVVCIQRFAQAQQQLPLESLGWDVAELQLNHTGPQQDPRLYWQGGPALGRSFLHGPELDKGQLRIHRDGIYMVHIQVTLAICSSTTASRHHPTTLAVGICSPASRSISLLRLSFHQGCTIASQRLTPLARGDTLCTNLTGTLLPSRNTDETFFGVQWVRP

CD123 = target: T6, CD123 (UniProt P26951 19-378, limits assumed); test: flow cytometry, MOLM-13 cells
T6 construct: whole, on cells; also called IL3RA
T6 sequence (P26951 19-378 limits assumed): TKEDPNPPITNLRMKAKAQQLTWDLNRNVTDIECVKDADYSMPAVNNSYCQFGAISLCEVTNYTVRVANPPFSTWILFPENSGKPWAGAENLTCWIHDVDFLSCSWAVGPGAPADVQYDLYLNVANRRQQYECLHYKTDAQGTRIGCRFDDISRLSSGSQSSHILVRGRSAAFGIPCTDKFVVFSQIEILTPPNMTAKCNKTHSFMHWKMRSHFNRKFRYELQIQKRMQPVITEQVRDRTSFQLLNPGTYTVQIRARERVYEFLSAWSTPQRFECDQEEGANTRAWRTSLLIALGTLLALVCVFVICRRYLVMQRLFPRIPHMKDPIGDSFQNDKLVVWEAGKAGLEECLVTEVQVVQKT

CD135 = target: T7, CD135 (UniProt P36888 27-993, limits assumed); test: flow cytometry, MOLM-13 cells
T7 construct: whole, on cells; also called FLT-3

BCMA = target: T8, BCMA (UniProt Q02223 1-184, limits assumed); test: flow cytometry, RPMI 8226 cells
T8 construct: whole, on cells
T8 sequence (looked up): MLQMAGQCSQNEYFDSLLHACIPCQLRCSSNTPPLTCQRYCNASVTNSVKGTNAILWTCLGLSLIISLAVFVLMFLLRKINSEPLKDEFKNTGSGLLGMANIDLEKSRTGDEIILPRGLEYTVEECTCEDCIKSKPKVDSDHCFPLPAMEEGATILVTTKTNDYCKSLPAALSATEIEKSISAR

EGFR = target: T9, EGFR (UniProt P00533 25-1210); test: flow cytometry, MDA-MB 231 and PC-3 cells
T9 construct: whole, on cells

nfP2X7 CAR 1 [1] = target: T10, nfP2X7 CAR 1; test: flow cytometry, anti-His-FITC, MFI on EGFR+ (CAR+) T cells over background 0.44
T10 construct: CAR-positive cells gated by the co-expressed EGFR marker; also called nfP2X7 targeted CAR; nfP2X7 CAR on EGFR+ T cells
Summary of the method: (§1)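 CAR T cells incubated with BRiDGE variants at saturating concentrations; bound BRiDGE detected with anti-His-FITC by flow cytometry. EGFR marks CAR expression. Value is median fluorescence intensity on EGFR+ (CAR+) cells divided by that on EGFR− (CAR−) cells.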

nfP2X7 CAR 1 [2] = target: T10, nfP2X7 CAR 1; test: flow cytometry, anti-His-FITC, MFI on EGFR+ (CAR+) over EGFR- (CAR-) T cells
Summary of the method: as §1

CD19 [3] = target: T11, CD19 (UniProt P15391 20-556, limits assumed); test: flow cytometry, JeKo-1 cells, bridge at saturating conc., anti-His-FITC detection
T11 construct: whole, on cells; also called CD19 on JeKo-1
T11 sequence (looked up): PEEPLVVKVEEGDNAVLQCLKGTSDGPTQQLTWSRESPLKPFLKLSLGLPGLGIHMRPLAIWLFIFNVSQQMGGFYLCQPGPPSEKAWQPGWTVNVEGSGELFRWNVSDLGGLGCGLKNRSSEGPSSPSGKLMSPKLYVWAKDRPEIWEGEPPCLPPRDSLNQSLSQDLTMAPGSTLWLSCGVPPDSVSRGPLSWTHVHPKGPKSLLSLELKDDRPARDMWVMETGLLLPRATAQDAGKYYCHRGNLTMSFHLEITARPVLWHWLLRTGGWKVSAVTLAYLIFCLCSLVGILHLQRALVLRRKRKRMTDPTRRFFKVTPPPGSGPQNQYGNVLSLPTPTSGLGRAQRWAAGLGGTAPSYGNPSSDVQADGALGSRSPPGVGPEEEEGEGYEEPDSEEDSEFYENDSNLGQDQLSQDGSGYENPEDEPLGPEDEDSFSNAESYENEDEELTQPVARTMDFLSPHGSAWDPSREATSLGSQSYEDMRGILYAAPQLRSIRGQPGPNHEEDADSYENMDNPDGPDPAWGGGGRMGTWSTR
Description: (§2) JeKo-1 cells were incubated with different CD19 BRiDGE variants at saturating concentrations. […] The MFI intensity correlates with the number of secondary bound antibodies bound to the CD19 BRiDGE variants that are only detected if they are bound to the JeKo-1 cells. MFI: median fluorescence intensity. BLitz: Bio-Layer interferometry (BLI) technology using HIS-tag identification tips. […] The higher the MFIR, the stronger the binding.

CD19 [4] = target: T11, CD19; test: flow cytometry, JeKo-1 cells, BIL03s-AF647 detection, MFI over no-bridge control
Description: as §2

CD19 [5] = target: T11, CD19; test: flow cytometry, JeKo-1 cells, bridge at saturating conc., BIL03s-AF647 detection
Description: as §2

nfP2X7 CAR 1 [6] = target: T10, nfP2X7 CAR 1; test: flow cytometry, nfP2X7 CAR 1 T cells (EGFR+ gate), anti-His-FITC detection
CD19 [7] = target: T11, CD19; test: flow cytometry, JeKo-1 cells, anti-His-FITC detection, MFI over no-bridge control
Description: as §2

B1: CD37 bridging molecule (E200 + CD37 binder, Otlertuzumab, B026) (Fab, V domains shown)
VH: EVQLVQSGAEVKKPGESLKISCKGSGYSFTGYNMNWVRQMPGKGLEWMGNIDPYYGGTTYNRKFKGQVTISADKSISTAYLQWSSLKASDTAMYYCARSVGPFDSWGQGTLVTVSS
VL: EIVLTQSPATLSLSPGERATLSCRASENVYSYLAWYQQKPGQAPRLLIYFAKTLAEGIPARFSGSGSGTDFTLTISSLEPEDFAVYYCQHHSDNPWTFGQGTKVEIKR
B1: binds (CD37).

B2: CD79B bridging molecule (E200 + CD79B binder, Polatuzumab, B025) (Fab, V domains shown)
VH: EVQLVESGGGLVQPGGSLRLSCAASGYTFSSYWIEWVRQAPGKGLEWIGEILPGGGDTNYNEIFKGRATFSADTSKNTAYLQMNSLRAEDTAVYYCTRRVPIRLDYWGQGTLVTVSS
VL: DIQLTQSPSSLSASVGDRVTITCKASQSVDYEGDSFLNWYQQKPGKAPKLLIYAASNLESGVPSRFSGSGSGTDFTLTISSLQPEDFATYYCQQSNEDPLTFGQGTKVEIKR
B2: binds (CD79B).

B3: ROR1 bridging molecule (E200 + ROR-1 binder, clone D10v3, B044) (Fab, V domains shown)
VH: QVQLKESGPGLVAPSQTLSITCTVSGFSLTSYGVHWVRQPPGKGLEWLGVIWAGGFTNYNSALKSRLSISKDNSKSQVLLKMTSLQTDDTAMYYCARRGSSYSMDYWGQGTSVTVSS
VL: EIVLSQSPAITAASLGQKVTITCSASSNVSYIHWYQQRSGTSPRPWIYEISKLASGVPVRFSGSGSGTSYSLTISSMEAEDAAIYYCQQWNYPLITFGSGTKLEIQR
B3: binds (ROR1).

B4: CD22 bridging molecule (E200 + CD22 binder, m971-L7, B023) (Fab, V domains shown)
VH: QVQLQQSGPGMVKPSQTLSLTCAISGDSVSSNSVAWNWIRQSPSRGLEWLGRTYYRSTWYNDYAVSMKSRITINPDTNKNQFSLQLNSVTPEDTAVYYCAREVTGDLEDAFDIWGQGTMVTVSS
VL: DIQMIQSPSSLSASVGDRVTITCRASQTIWSYLNWYRQRPGEAPNLLIYAASSLQSGVPSRFSGRGSGTDFTLTISSLQAEDFATYYCQQSYSIPQTFGQGTKLEIKR
B4: binds (CD22).

B5: CD70 bridging molecule (E200 + CD70 binder, Cusatuzumab, B028) (Fab, V domains shown)
VH: EVQLVESGGGLVQPGGSLRLSCAASGFTFSVYYMNWVRQAPGKGLEWVSDINNEGGTTYYADSVKGRFTISRDNSKNSLYLQMNSLRAEDTAVYYCARDAGYSNHVPIFDSWGQGTLVTVSS
VL: SQAVVTQEPSLTVSPGGTVTLTCGLKSGSVTSDNFPTWYQQTPGQAPRLLIYNTNTRHSGVPDRFSGSILGNKAALTITGAQADDEAEYFCALFISNPSVEFGGGTQLTVLK
B5: binds (CD70).

B6: CD123 bridging molecule (E200 + CD123 binder, clone 32716, B042) (Fab, V domains shown)
VH: QIQLVQSGPELKKPGETVKISCKASGYIFTNYGMNWVKQAPGKSFKWMGWINTYTGESTYSADFKGRFAFSLETSASTAYLHINDLKNEDTATYFCARSGGYDPMDYWGQGTSVTVSS
VL: DIVLTQSPASLAVSLGQRATISCRASESVDNYGNTFMHWYQQKPGQPPKLLIYRASNLESGIPARFSGSGSRTDFTLTINPVEADDVATYYCQQSNEDPPTFGAGTKLELKR
B6: binds (CD123).

B7: CD135 bridging molecule (E200 + CD135 binder, clone 4G8, B041) (Fab, V domains shown)
VH: QVQLQQPGAELVKPGASLKLSCKSSGYTFTSYWMHWVRQRPGHGLEWIGEIDPSDSYKDYNQKFKDKATLTVDRSSNTAYMHLSSLTSDDSAVYYCARAITTTPFDFWGQGTTLTVSS
VL: DIVLTQSPATLSVTPGDSVSLSCRASQSISNNLHWYQQKSHESPRLLIKYASQSISGIPSRFSGSGSGTDFTLSINSVETEDFGVYFCQQSNTWPYTFGGGTKLEIKR
B7: binds (CD135).

B8: BCMA bridging molecule (E200 + BCMA binder, clone CA8 J9M0, B039) (Fab, V domains shown)
VH: QVQLVQSGAEVKKPGSSVKVSCKGSGYTFTNYWMHWVRQAPGQGLEWIGATYRGHSDTYYNQKFKGRATLTADTSTSTAYMELSSLRSEDTAVYYCTRGAIYDGYDVLDNWGQGTLVTVSS
VL: DIQMTQSPSSLSASVGDRVTITCSASQDISNYLNWYQQKPGKAPKLLIYYTSNLHSGVPSRFSGSGSGTDFTLTISSLQPEDFATYYCQQYRKLPWTFGQGTKLEIKR
B8: binds (BCMA).

B9: EGFR bridging molecule (E200 + EGFR binder, Matuzumab, B035) (Fab, V domains shown)
VH: QVQLVQSGAEVKKPGASVKVSCKASGYTFTSHWMHWVRQAPGQGLEWIGEFNPSNGRTNYNEKFKSKATMTVDTSTNTAYMELSSLRSEDTAVYYCASRDYDYDGRYFDYWGQGTLVTVSS
VL: DIQMTQSPSSLSASVGDRVTITCSASSSVTYMYWYQQKPGKAPKLLIYDTSNLASGVPSRFSGSGSGTDYTFTISSLQPEDIATYYCQQWSSHIFTFGQGTKVEIKR
B9: binds (EGFR).

B10: CD19 BRIDGE variant B36 (Fab)
heavy: EVQLVESGGGLVKPGGSLKLSCAASGYTFTSYVMHWVRQAPGKGLEWIGYINPYNDGTKYNEKFQGRVTISSDKSISTAYMELSSLRSEDTAMYYCARGTYYYGTRVFDYWGQGTLVTVSSASTKGPSVFPLAPSSKSTSGGTAALGCLVKDYFPEPVTVSWNSGALTSGVHTFPAVLQSSGLYSLSSVVTVPSSSLGTQTYICNVNHKPSNTKVDKKVEPKSCHHHHHH
light: DFPGHNYTTRNILPGLNITSTFHKTSGSGKGGGGSEPKSSDKTHTGGGGSDIVMTQSPATLSLSPGERATLSCRSSKSLQNVNGNTYLYWFQQKPGQSPQLLIYRMSNLNSGVPDRFSGSGSGTEFTLTISSLEPEDFAVYYCMQHLEYPITFGAGTKLEIKRTVAAPSVFIFPPSDEQLKSGTASVVCLLNNFYPREAKVQWKVDNALQSGNSQESVTEQDSKDSTYSLSSTLTLSKADYEKHKVYACEVTHQGLSSPVTKSFNRGEC
In the case of B10, the “HisTag MFI Ratio (background 0.44)” value (nfP2X7 CAR 1 [1]) is reported as 5.5, the “HisTag MFI Ratio of EGFR+/EGFR-” value (nfP2X7 CAR 1 [2]) is reported as 4.2 and the “MFI HisTag FITC” value (CD19 [3]) is reported as 2.29. For the same binder, the “MFIR BIL03 AF647” value (CD19 [4]) was 19.9, the “MFI Bil03 AF647” value (CD19 [5]) was 9.15 and the “MFI HisTag FITC in EGFR+ Population” value (nfP2X7 CAR 1 [6]) was 2.41. The “MFIR HisTag FITC” value (CD19 [7]) was 2.97.
